Test: soluble fraction after stress (log2 fold change); higher = more stays soluble; pooled small domains, quantitative proteomics
Conditions: stress: 50 degC
Outline: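 The measure of aggregation propensity here is the base-two logarithm of the fold change in the soluble amount of each protein after stress. A higher value means more of that protein stays in solution. Stress was applied at 50°C to pooled libraries of small protein domains, read out by high-throughput quantitative proteomics.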

Point of comparison: “HMWMEKEELLWNDIIRGGVERGELREDTDIQEAAALFRQVFIGLAYQMSFSDGLDVGILRKRFHHIYGLLT”, “soluble fraction (log2)” value 0.0187. Against it:
- HMNVEKLREMYPEGTKIILQEMQGESRMAKGLKGTVTHVDDAGQIHMKWENGSSLVLNVEVDTFKKIE — within 0.2 log units, 0.0915
- HMQARSQQTIQTLFKAAAQILDKEGEAGLSTNKVAAAAGFSIGTLYQYFPSKEVLIQAMAAR — within 0.2 log units, -0.0788
- HMENVALYIRLKSMASVYDDVHGYNIEWIKSMIGLSIDIEKLRTVLEDVSWITKVEEDVYSFSKNAKPFE — lower, -4.31
- HMEEDPILVAQRFLNIFRQLHIFDQQRREEFNSMILALPPEIRGTFGVLPGGSVLQEYVDELEISKGMA — lower, -0.512
- HMTAAPEVRVEGLFKGAAVLKIDGQQVMLKKGRSHSSGVTLVDANAHRAIVEIDGQRHELALHMA — within 0.2 log units, 0.0499
- HMQESTILPAQKSAISSLATSAGFSSENLKRYLLQNYGVDLKDLTRSQGAEVIKAFQSGNVSKP — within 0.2 log units, 0.0882
- HMNMFDMRKTGARISQLRRAAGLTQAELAEKLGISYQAVSSWERGSNMPDIGKLLDLARILNTTVDALLSA — lower, -0.375
- HMPLYKYYTSYQIEPGDTLTSIAQKYTINSDVSVQDYIDEVKKNNNLVSDKINSGSYLVVSYYSNEY — lower, -2.35
- HMPPNVLSEREQEVLQLAADGMSNKEMGSELYIAPTTVRDHMQSIMRKLQVNSRTAAAVAGLKLGLLD — within 0.2 log units, -0.1
- HMDDSSLFGRHTGIGFIVDDIDSGYQTLLAKGVSFEMPPTEQPWGGILALMKDPDGNIFYLD — within 0.2 log units, -0.0639
- HMTGAEGKLARYLLTVPSGEPLRLSATDLAKRLGISRASLYRAFQALEDARLIRREGKSMYVLDPAGLEGV — lower, -0.289
- HMSTNDIFISGDKLVLKNTTGQMDVFDMAGRKVLSSTNNVSEMNVSSLPKGVYVVSASIGGSKMKAKVYK — higher, 0.527
- HMEQFRENIVRIYMEIDDYENGAKFLEMGNNRDASFYELAGDFYKYFGENELANENYDLAISA — lower, -0.387
- HMDVQPHIYLRKLDQFWPADLHSLILYTLDGRRLWSADSGNIPALPHRASSLVILEATWDNGQRTRRKQFL — lower, -1.63
- HMTIGKIVNIIEGSYANVRSAPDQNSEPIGRAYPGDAFLVDPLGSSGDWVKVTYEGQSGFIFQAYISV — lower, -1.29
- HMSDRFLDQEGVALSTLRPSGTVVLDSGEHLDVVTRGEFIEQGERVKVIKAESTWYVVEQIN — lower, -0.268
- HMGTNTTGWIKIADDWKYIDSNGEYTVNDWRQSADGGWYYLGYNGNMLKNQTTPDGYYVDAEGLWDGMSPA — lower, -0.709
- HMGKTEMPFSTFLTEVDKGNIVSVDIRGSEISGNFRDGKGFKTYSPNYPNLVEKLSAKGVAITAGPR — within 0.2 log units, 0.187
- HMFMKNTEVALAIKGKFSNQTTITSKELVLFLSDLFPELSNKTIPWKINQLKAENLIYQTGRGIYTFN — lower, -2.57
- HMIGTPLSEWQKDAPEEITRDQIAELVILKFVTVEQLALASDAQLQRIGMGGVGLRERAKLYLNRK — lower, -1.15
- HMNENDPRVIKTRRLLLDSFVVLVRKKDFTSISVKDITDSAQVNRATFYAHFQDKYDILEYMVID — within 0.2 log units, 0.112
- HMYTDGVPALTDLKKESKPGRRQYVGVEDIPKVLGGLGITILSTSKGLMSGHQAKKKNIGGELIASV — higher, 0.258
- HMEVPFRNAAIFKTRSGDYAIRASYDGVDLGIKPIEKSTARTYFQLTDVKDKESFLNMTARNQYESEIAGI — within 0.2 log units, -0.00166
- HMKSTELSIIEALRVLGLKHGASQDSIKKSYRRLVKQHHPDLGGSADSFRKVNEAYQLLIMN — lower, -0.425
- HMPIDQAKRKKEIIQNFGIRKIYKFSEIFDLKFGRDNIIVTFLIILDMIKEGVVEINENKEEIEFEYK — within 0.2 log units, -0.166
- HMSVLPAREQVAAILRQAILLRKFKEGQDLTLKDAAELVGSSITPVREAFQILENEGLIELRPNKGAVVL — lower, -0.284
- HMIHFDHPERSILDTMLYEKKGMTAQSARNRLAAYQFQGEDVFKPVSVLSGGELSRITLAIKNAMADK — lower, -0.186
- HMDYQYILVDVKDRIATVTINRPEYSNAFARESYYEIADAMNTLGARDDVGVIVITGAGKHFSAGGDIKRF — lower, -0.534
- HMSAPVFRITPAGVVVNGLKRSDILTLTRIDGAMNTLPHNAGEVLVSTEGLAKGVYVITAGGKSLKFLV — lower, -1.36
- HMINPASEKQLSFANSLIAKKEGGTETLNHYLHNRKVSSLEELDRKDVSEIINALKFAKEVT — within 0.2 log units, 0.217
- HMHGTIHSAAYGGDIEAVKKFLAAGADVNANGGGRTPLDLAIQVKNTEIADLLRKHGGKTGDELKA — within 0.2 log units, 0.0271
- HMGAGEQMLPKVMFAEGDRVVHKVFGEGTVVTVDRPAQTYDIQFDKLRGTRRIMFRAELEGI — lower, -0.554
- HMDGNVPSVEGKPLSGAKYILETYGYKTGTVTEVNSEDVPAGIVISQNPARGTTLANGGSVNLQVSLG — higher, 0.321
- HMAPSPEGAAILRESVESVARDQVDRVALTMTARGYTTAEIAAALMVDRSTISRRLYAMRDRYHAQQDNAQ — lower, -0.37
- HMGADSFTGYTPIHKIDNPSDGINDGASYVVYFQKDGTDPTEFYKAVNANASTLAQLTSGTEYDLASSKKL — within 0.2 log units, 0.0305
- HMGSLVKLQSAAELHQAGRSAEAVPILLEVLATNPRLVDGWEILANALEKLGRLDEALAALKKTVALSPPG — lower, -0.694
- HMWPTPRTWSALMNELNLYKENHGYANIVDIPSEKIRRMADGIIGEDMAVRYVAFLQSHASS — lower, -1.6
- HMGSVHDAATDRIREMILGGQFEPGERLRQDDLATSLGVSTMPVREALRQLQAEGLVVFYPRKGAVVAR — within 0.2 log units, 0.142
- HMQANLPFSELLADVDRGLISDVTIKGDQVSGHYTDGRTFNTFIPPEADLVRRLTEKNVRIAAVPD — within 0.2 log units, -0.111
- HMNKNQGVTTTNLNFRKSASTSSLVLYTIPKNTTLDILDKLPSGWYKVKYKGLTGYVSGSYV — lower, -1.37
- HMTVLIDEQSSDGLLKITVTANTAVKSITIADELLEDKEQLEDYLILVLNKAIARANQVNQTELDAVAK — higher, 0.317
- HMSIYDAPIEDLKFSTRIFNSLKRADIHTVADLIAHSRDDLMKVRNLGATSLDELIEKLGTHGLQLADP — lower, -0.254
- HMDNEIIEEEKITTLMITHNMRDAIKYGNRLIMLNEGRVIFDISGEEKKNLTVQELLEKFEK — within 0.2 log units, -0.118
- HMLTAHEAILKELRKMLLTGVLSPGEAVRPEIIGESFGVSAVPVREALRILEGEGQVLNRPHKGYVVT — lower, -0.568
- HMETKIKFQIQTLDELNIRKVADWDAKAITTVKKGQILDVVDTVAAKNGSTPMYRLESGLYITASPKYVKK — lower, -0.376
- HMNVDSLIGQTARVIVDINNNDSIGYALVGGQEWTARAENDNDIIPKDTLVEIVGVSGVKLIVRRKE — within 0.2 log units, -0.044
- HMKTMSLSSIEKAIYKTKYENEPTSQRLSRIESSVFGTNFSQDSESERIARISSAINAQKSAK — within 0.2 log units, 0.125
- HMTGENWAERSRQLAAAGLLVLGKEAQEKIASLPNLIPLIEAAAASDTRLLNAQTIDELLSFVPTEETI — within 0.2 log units, -0.05
- HMEPLIRTLEEQIAEKIKNYRKGTRVYDAEHVDRWISQLPEEERMVVLTETNRLLEQNYVDQAKLME — within 0.2 log units, -0.107
- HMSSYETVTLNGQRYFKYKVKSGEGLYAISRMFSTPIAEIIRHNPSSNAGLKNGQELLIPVN — within 0.2 log units, 0.00287
- HMPRENLAYTLIMDGIVQHKNLPRASVTEAWLKQELQKAGINDFRQVLIAGIDSKGQLYFQPKQK — higher, 0.528
- HMESGFEAVREVARHGSFANAAKALGVSGPAVSRQVKSLEERLGLVFFHRTTRMVTLTEAGQQLVDTLD — within 0.2 log units, -0.00498
- HMIERLVEFVHTLRHSGVRVSMAEAMDAAEALRHTPITERQIFKTALQSVLVKEHQDIPAFDAAFERFFL — lower, -1.54
- HMSTRKAFVNGDGVRLRSGPGTNHSIRASLTKGQTVFVTGTKDGWASVSVQGGASGWVSADLLKYE — higher, 0.232
- HMGTVISVDKARSIALAKVPGASANDIRIHLDRDDGRQIYEGEIYYNRMEYEFEIDASTGTIIEWSAEHW — lower, -1.73
- HMVGIAEAMKHIADEDYGDLSAIFKQIFSDTDGGRNFSDAIRTQMRSTDSSGLRKVLSTLIMSIEE — lower, -0.498
- HMARHIHFEVHVQQAGRWSIHAQFGAGQREKAIEEAKKIEKTPGFDSVKVVKETYDSDLGNHQDTTIYRGP — lower, -0.506
- HMKQLNKRQNDILSFAEKQGYVSVENLAKLFSVTQQTIRRDINYLSDNELLVRTHGGAYYSS — lower, -0.902
- HMSVHSAELKKLKAHLLGIIGRELETQPSTENREEMVRQILHQSYESLRLNLPMQLKEELFNEILAEVL — higher, 0.353
- HMQLKFTDLRKEILRMIWEGHGPQKAYDLLNKLQQTNPSAKPATVYRALDFLIGNGFIHKVASLNAFVG — lower, -0.668
- HMKSLLSRREQEVLELVSRGFSYSEIAELKNLSVHTIQTHIKSLYGKLEVHSKMEAVLEATRMGLLPQ — lower, -1.8
- HMRQMSEELQSAKEALEDRRTQEKAVLLLMEHRNISNDEAHRLLRKLAMDQGKRLPEVARALVSMAGVL — within 0.2 log units, 0.132
- HMETVMYLRQIKRPQGIYLAIQESYYDSSKKQSRTRTIESIGYLDNLRKEYEDPIAFFSQKAAAMTSEKKK — lower, -1.51
- HMAVLFFVKRGERILGPTRLADLFQHAASGRLRANDLVGESPKGPWLPARQLDELEDAWASSRDATEAAAA — higher, 0.251
- HMDRWTPLVVAVLSRGSHRFGELRAAIGGITPKVLTDTLRSMERDGLITRDQAPGVPPRVDYALTPLGS — lower, -1.12
- HMKKHALFTLFKHHNANGTTVWYARFWDDATQRYAIARSTGVLAQGKRERHDEAITVAREMASSIQFS — lower, -2.6
- HMFPDLSPEQQRIVDVLTKSNDLQLNQLSVKTGIPIGDITSILFQMEMMGVVKPMAGGNYHLL — lower, -1.36
- HMYEDGGAFLKAEREKYGLTLTDIYEHTHIPVRKLKAYEMHEEEMPDRTRALLELYFDQVAYEYES — lower, -0.443
- HMYVQDPVDRLVLESALRLLREQEREIIFLHLVAGLKHREIAGLLHLPLSTVLSGYRRALTKMKSYLEE — within 0.2 log units, -0.115
- HMSNEEEIEGLVSKVLDNNPEIVERIRSGEDKLISYLVGEVMKQSSSSLNPGIVKEIIVNKTI — within 0.2 log units, 0.161
- HMFSSVSVPAELSNQRFDKVVAELTPDLSRSKIKQLILLGKVLLNGEVTPPKQKVETGDEIEIFYTRQIE — lower, -0.63
- HMAKPVNISAEPYHYDPTRFRVTFELPRLSDQPRKRIRKVAPAGLDREQALAWAKRLEREVLHELLR — lower, -0.494
- HMYEINEIIRERRLKKGLTQAQVAKYLGVSAPAVNKWEKGTTYPDLVLLPALARLLDTDLTTLLSF — lower, -1.38
- HMLTGNTAKLFAHLVEVMNPKEFVKINRQTVIVEAGIPRGSVGAAIAKLLETGHLIANASGAYKLT — higher, 0.322

Reference: the domain aggregation screens of Martell et al. (2025)
